Molecules are shown by their SMILES.

1 compound from patent publication US8546531B2, “Methods and reagents for preparing multifunctional probes” (The General Hospital Corporation, priority 2008, dated 2013) can be followed below.

For the data set, the system named is integrin-expressing B16F0 melanoma. The note with it: mouse, in vivo, iv. Here is the method:
Approximately 1·10^6 B16F0 murine melanoma cells (from C57BL6 mice) in PBS (40 μL) were injected s.c. into the right hind paw of 6-8 weeks female C57BL6 mice (Charles River Laboratories). After 4 weeks, tumors reached a size suitable for nuclear imaging experiments.
SPECT imaging co-registered with high-resolution CT was performed on a X-SPECT™ system (Gamma Medica, Northridge, Calif., USA). The SPECT system has two gamma cameras, equipped with 1 mm diameter medium-energy pinhole collimators. The solid state CT is mounted on the same gantry as the gamma cameras enabling high quality image fusion. The SPECT images were reconstructed using OSEM (ordered subsets expectation maximization) and CT images were reconstructed using a modified Feldkamp cone-beam reconstruction algorithm (COBRA). The ^111In-MSAP-RGD probe (300 μCi in 150 μL) was injected (iv, tail vein) and after 2 hours mice were anesthetized (isoflurane). CT (256 projections, 50 kV, 0.5 mA) was performed followed by a SPECT acquisition with parameters of 64 projections, 30-120 seconds per projection and a radius of rotation of 3.5 cm giving a resolution of 1.8 mm. […] Mean SPECT pixel intensity and tumor volumes were determined by designing regions of interest (ROIs) on the hind paws of the micrometer resolution CT scans and extrapolating these ROIs to the fused SPECT data using Osirix software. […]

Take `N=C(N)NCCC[C@@H]1NC(=O)[C@H](CCCCNC(=O)CCCN2C(=O)CC(SC[C@H](NC(=O)[C@H](CCCCNC(=O)CCCCCNc3ccc([N+](=O)[O-])c4nonc34)NC(=O)CN(CCN(CC(=O)O)CC(=O)O)CCN(CC(=O)O)CC(=O)O)C(N)=O)C2=O)NC(=O)[C@@H](Cc2ccccc2)NC(=O)[C@H](CC(=O)O)NC(=O)CNC1=O` (stereo partly shown) (111In complex, metal not drawn) [MSAP-RGD probe]: the “distribution of the probe within the tumor” value was “occurred in parts of the tumor with high CD31 (endothelial cell maker) levels and CD11b (monocytes/macrophages marker) levels”.
